US9598497B2, “RSPO3 binding agents and uses thereof” (OncoMed Pharmaceuticals, Inc., priority 2012, dated 2017)

What was measured:
[1] = test system: gene sets characteristic of normal stem cells or cancer stem cells; assay: Microarray gene set enrichment analysis of treated OMP-LU102 tumors; format: in vivo, NOD-SCID mice; settings: RNA from OMP-LU102 tumors after treatment, FIG. 11B
Experimental: RNA was prepared from tumors from each of the four experimental groups following the treatment. Gene expression was characterized by microarray analysis.

[2] = target: T1, human LGR5 (Homo sapiens, UniProt O75473); assay: FACS binding of RSPO-Fc fusion proteins to LGR5 expressed on HEK-293 cells; settings: 10 μg/ml Fc fusion protein, FIG. 2
T1 construct: ligating amino acids 22-564 of human LGR5 to an N-terminal FLAG tag; expressed in transfected cells; host or cells: HEK-293
T1 sequence (O75473 22-564): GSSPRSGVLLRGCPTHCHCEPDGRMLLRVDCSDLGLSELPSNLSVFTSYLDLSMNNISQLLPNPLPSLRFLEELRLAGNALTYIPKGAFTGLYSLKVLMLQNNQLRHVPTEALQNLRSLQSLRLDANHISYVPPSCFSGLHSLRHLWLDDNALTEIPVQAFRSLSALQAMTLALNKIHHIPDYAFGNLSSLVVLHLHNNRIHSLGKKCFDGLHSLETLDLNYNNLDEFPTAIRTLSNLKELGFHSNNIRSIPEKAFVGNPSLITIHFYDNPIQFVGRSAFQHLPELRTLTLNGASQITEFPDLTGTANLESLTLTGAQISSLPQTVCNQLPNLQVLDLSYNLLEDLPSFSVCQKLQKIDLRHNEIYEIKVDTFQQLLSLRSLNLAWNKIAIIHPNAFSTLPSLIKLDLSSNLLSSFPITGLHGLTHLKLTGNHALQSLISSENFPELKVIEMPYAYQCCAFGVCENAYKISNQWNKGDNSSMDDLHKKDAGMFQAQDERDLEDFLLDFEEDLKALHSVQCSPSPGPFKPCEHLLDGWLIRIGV
Text: A cell surface LGR5 protein was generated by ligating amino acids 22-564 of human LGR5 to an N-terminal FLAG tag and to the transmembrane domain of CD4 and a C-terminal GFP protein tag using standard recombinant DNA techniques (FLAG-LGR5-CD4TM-GFP). RSPO-Fc constructs were generated using standard recombinant DNA techniques. Specifically, full-length human RSPO1, RSPO2, RSPO3 and RSPO4 were ligated in-frame to a human Fc region and the recombinant RSPO-Fc proteins were expressed in insect cells using baculovirus. The fusion proteins were purified from the insect medium using protein A chromatography.
HEK-293 cells were transiently transfected with the FLAG-LGR5-CD4TM-GFP construct. After 48 hours, transfected cells were suspended in ice cold PBS containing 2% FBS and heparin and incubated on ice in the presence of 10 μg/ml RSPO1-Fc, RSPO2-Fc, RSPO3-Fc, RSPO4-Fc, or FZD8-Fc fusion proteins for 15 minutes. A second incubation with 100 μl PE-conjugated anti-human Fc secondary antibody was performed to detect cells bound by the Fc fusion proteins. Cells were incubated with an anti-FLAG antibody (Sigma-Aldrich, St. Louis, Mo.) as a positive control and with an anti-PE antibody as a negative control. The cells were analyzed on a FACSCalibur instrument (BD Biosciences, San Jose, Calif.) and the data was processed using FlowJo software.

[3] = test system: RSPO3-induced β-catenin signaling; assay: TOPflash 6xTCF-luciferase reporter assay in HEK-293 cells with WNT3a and RSPO3; format: cell-based, human
Experimental: HEK-293 cells were transfected with a 6×TCF-luciferase reporter vector (TOPflash, Millipore, Billerica, Mass.). After 24-48 hrs, the transfected HEK-293 cells were incubated with a combination of WNT3a (5 ng/ml) and human RSPO3 (10 ng/ml, R&D BioSystems, Minneapolis, Minn.) in the presence of anti-RSPO3 antibodies 131R002 and 131R003. Antibodies 131R002 and 131R003 were added to the cells in 4-fold serial dilutions from 20 μg/ml to 0.02 μg/ml. As controls, cells were incubated with a combination of WNT3a and RSPO3, WNT3a only, RSPO3 only, or with no addition. The cells were incubated for 16 hours and luciferase activity was measured using Steady-Glo® Luciferase Assay System according to the manufacturer's instructions (Promega, Madison, Wis.).
HEK-293 cells were transfected with a 6×TCF-luciferase reporter vector (TOPflash, Millipore, Billerica, Mass.). After 24-48 hrs, the transfected HEK-293 cells were incubated with a combination of WNT3a and human RSPO3 in the presence of anti-RSPO3 antibodies 131R003, 131R003 CDR1 variant and 131R003 CDR3 variant. 131R003, 131R003 CDR1 variant, and 131R003 CDR3 variant were added to the cells in 5-fold serial dilutions from 20 μg/ml to 0.006 μg/ml. As controls, cells were incubated with a combination of WNT3a and RSPO3, WNT3a only, RSPO3 only, a control antibody, or with no addition. The cells were incubated for 16 hours and luciferase activity was measured using Steady-Glo® Luciferase Assay System according to the manufacturer's instructions (Promega, Madison, Wis.).
HEK-293 cells were transfected with a 6×TCF-luciferase reporter vector (TOPflash, Millipore, Billerica, Mass.). After 24-48 hrs, the transfected HEK-293 cells were incubated with a combination of WNT3a conditioned medium (5 ng/ml) and human RSPO3 (10 ng/ml, R&D BioSystems) in the presence of anti-RSPO3 antibodies 131R002, 131R006B, or 131R007. Antibodies 131R002, 131R006 or 131R007 were added to the cells in 5-fold serial dilutions from 20 μg/ml to 0.0064 μg/ml. As controls, cells were incubated with WNT3a conditioned medium alone, a combination of WNT3a conditioned medium and human RSPO3, or with no addition to cells. The cells were incubated for 16 hours and luciferase activity was measured using Steady-Glo® Luciferase Assay System according to the manufacturer's instructions (Promega, Madison, Wis.).
HEK-293 cells were transfected with a 6×TCF-luciferase reporter vector (TOPflash, Millipore, Billerica, Mass.). […] The cells were incubated for 16 hours and luciferase activity was measured using Steady-Glo® Luciferase Assay System according to the manufacturer's instructions (Promega, Madison, Wis.).

Molecule	binding to LGR5 expressed on the surface of HEK-293 cells [2]	also measured
N.N.O=C([O-])C1(C(=O)[O-])CCC1.[Pt+2] [carboplatin, reference compound]		expression of gene sets characteristic of normal stem cells or cancer stem cells [1]: did not have this effect on gene expression
RSPO1: full-length human RSPO1 ligated in-frame to a human Fc region (protein, left off: a dimerising Fc or GST, full-length human RSPO1 ligated in-frame to a human Fc region) SRGIKGKRQRRISAEGSQACAKGCELCSEVNGCLKCSPKLFILLERNDIRQVGVCLPSCPPGYFDARNPDMNKCIKCKIEHCEACFSHNFCTKCKEGLYLHKGRCYPACPEGSSAANGTMECSSPAQCEMSEWSPWGPCSKKQQLCGFRRGSEERTRRVLHAPVGDHAACSDTKETRRCTVRRVPCPEGQKRRKGGQGRRENANRNLARKESKEAGAGSRRRKGQQQQQQQGTVGPLTSAGPA	bound to LGR5	
131R003: anti-RSPO3 antibody from a mammalian cell antibody library; heavy chain variable region SEQ ID NO:16, light chain variable region SEQ ID NO:17 (antibody, V domains shown, 131R003 Heavy chain variable region; 131R002/131R003 Light chain variable region) VH: QVQLKQSGPELVKPGASVKISCKASGYTFTDYSIHWVKQNHGKSLDWIGYIYPSNGDSGYNQKFKNRATLTVDTSYSTAYLEVRRLTFEDSAVYYCATYFANYFDYWGQGTTLTVSSAST VL: DIVLTQSPASLAVSLGQRATISCKASQSVDYDGDSYMNWYQQKPGQPPKLLIYAASNLESGIPARFSGSGSGTDFTLNIHPVEEEDAATYYCQQSNEDPLTFGAGTKLELKR		RSPO3-induced β-catenin signaling ([3]; WNT3a 5 ng/ml + RSPO3 10 ng/ml, antibody 20 to 0.02 μg/ml, FIG. 3): reduced RSPO3-induced β-catenin signaling in a dose-dependent manner
h131R010: humanized 131R003 variant, IgG1; heavy chain variable region SEQ ID NO:44, light chain variable region SEQ ID NO:86; ATCC PTA-120420 and PTA-120421 (antibody, V domains shown, Humanized 131R005/131R007/131R008/ 131R010/131R011 Heavy chain variable region; Humanized 131R010/131R011 Light chain variable region, humanized 131R003 variant, IgG1; ATCC PTA-120420 and PTA-120421) VH: QVQLVQSGAEVKKPGASVKVSCKASGYTFTDYSIHWVRQAPGQGLEWIGYIYPSNGDSGYNQKFKNRVTMTRDTSTSTAYMELSRLRSEDTAVYYCATYFANNFDYWGQGTTLTVSS VL: DIQMTQSPSSLSASVGDRVTITCKASQSVDYDGDSYMNWYQQKPGKAPKLLIYAASNLESGVPSRFSGSGSGTDFTLTISPVQAEDFATYYCQQSNEDPLTFGAGTKLELKR		WNT3a/RSPO3-induced β-catenin signaling ([3]; WNT3a conditioned medium 5 ng/ml + human RSPO3 2 ng/ml, antibody 20 to 0.0064 μg/ml, FIG. 13): reduced WNT3a/RSPO3-induced β-catenin signaling in a dose-dependent manner and to a similar extent as h131R007

Now from value to molecule, other results behind:

binding to LGR5 expressed on the surface of HEK-293 cells [2]	Molecule	also measured
bound to LGR5	RSPO2: full-length human RSPO2 ligated in-frame to a human Fc region (protein, left off: a dimerising Fc or GST, full-length human RSPO2 ligated in-frame to a human Fc region) QGNRWRRSKRASYVSNPICKGCLSCSKDNGCSRCQQKLFFFLRREGMRQYGECLHSCPSGYYGHRAPDMNRCARCRIENCDSCFSKDFCTKCKVGFYLHRGRCFDECPDGFAPLEETMECVEGCEVGHWSEWGTCSRNNRTCGFKWGLETRTRQIVKKPVKDTIPCPTIAESRRCKMTMRHCPGGKRTPKAKEKRNKKKKRKLIERAQEQHSVFLATDRANQ	
bound to LGR5	RSPO3: full-length human RSPO3 ligated in-frame to a human Fc region (protein) QNASRGRRQRRMHPNVSQGCQGGCATCSDYNGCLSCKPRLFFALERIGMKQIGVCLSSCPSGYYGTRYPDINKCTKCKADCDTCFNKNFCTKCKSGFYLHLGKCLDNCPEGLEANNHTMECVSIVHCEVSEWNPWSPCTKKGKTCGFKRGTETRVREIIQHPSAKGNLCPPTNETRKCTVQRKKCQKGERGKKGRERKRKKPNKGESKEAIPDSKSLESSKEIPEQRENKQQQKKRKVQDKQKSVSVSTVH	
